Experiment [1] addresses Hsp27 GPG (isoleucine and valine of the IPV motif mutated to glycine) (human) (UniProt P04792). The experiment can be described thus: ITC; peptide (1 mM) titrated into a cell with Hsp27 proteins (100 µM); SEC buffer (50 mM sodium phosphate, 100 mM NaCl); 25 °C; one-site binding model. Background: ITC needs no label: the signal is the heat of the interaction.
The target of a further experiment is Hsp27 ΔNTD GPG (human) (UniProt P04792). The description is as above.

The values below come from PMC6212398, “Competing protein-protein interactions regulate binding of Hsp27 to its client protein tau” (Nature Communications, 2018).

The term Kd denotes the equilibrium constant for the complex coming apart. In general, stoichiometry N refers to the number of molecules, sites or subunits per partner or assembly. Take EITIPVTHE [Hsp27 IPV H peptide (…)]: in experiment [1], the Kd came out at 10 µM and the stoichiometry N stood at 0.2. Moreover, the equilibrium dissociation constant (Kd) with Hsp27 ΔNTD GPG (human) turned out to be 14.3 µM.
